Laboratory results: patent publication US20260232801A1 (published 2026)
Residue numbers refer to the chain shown, from its start.

T1: TP53 wild-type peptide on HLA-A*02:01 (human)
T1 peptide: HMTEVVRRC

T2: TP53 R175H peptide on HLA-A*02:01 (human)
T2 peptide: HMTEVVRHC

B1: TCR 4A (TCR, V domains shown)
Valpha: AQTVTQSQPEMSVQEAETVTLSCTYDTSESNYYLFWYKQPPSRQMILVIRQEAYKQQNATENRFSVNFQKAAKSFSLKISDSQLGDTAMYFCAFMKWQGGSEKLVFGKGTKLTVNP
Vbeta: DTAVSQTPKYLVTQMGNDKSIKCEQNLGHDTMYWYKQDSKKFLKIMFSYNNKELIINETVPNRFSPKSPDKAHLNLHINSLELGDSAVYFCASSQALAGEVDTQYFGPGTRLTVL
B2: TCR 1B (TCR, V domains shown)
Valpha: AQKITQTQPGMFVQEKEAVTLDCTYDTSDPSYGLFWYKQPSSGEMIFLIYQGSYDQQNATEGRYSLNFQKARKSANLVISASQLGDSAMYFCAMREGFSGGYNKLIFGAGTRLAVHP
Vbeta: DAGVTQSPTHLIKTRGQQVTLRCSPISGHKSVSWYQQVLGQGPQFIFQYYEKEERGRGNFPDRFSARQFPNYSSELNVNALLLGDSALYLCASSDDTGTTKSSGANVLTFGAGSRLTVL
B3: TCR 3A (TCR, V domains shown)
Valpha: GEDVEQSLFLSVREGDSSVINCTYTDSSSTYLYWYKQEPGAGLQLLTYIFSNMDMKQDQRLTVLLNKKDKHLSLRIADTQTGDSAIYFCAEISANQAGTALIFGKGTTLSVSS
Vbeta: DTGVSQNPRHKITKRGQNVTFRCDPISEHNRLYWYRQTLGQGPEFLTYFQNEAQLEKSRLLSDRFSAERPKGSFSTLEIQRTEQGDSAMYLCASSPLDSYQETQYFGPGTRLLVL
B4: TCR 1A (TCR, V domains shown)
Valpha: SQQGEEDPQALSIQEGENATMNCSYKTSINNLQWYRQNSGRGLVHLILIRSNEREKHSGRLRVTLDTSKKSSSLLITASRAADTASYFCATGSNYGGSQGNLIFGKGTKLSVKP
Vbeta: EAGVAQSPRYKIIEKRQSVAFWCNPISGHATLYWYQQILGQGPKLLIQFQNNGVVDDSQLPKDRFSAERLKGVDSTLKIQPAKLEDSAVYLCASSLDYGSSYEQYFGPGTRLTVT
B5: TCR 7A (TCR, V domains shown)
Valpha: AQKVTQAQTEISVVEKEDVTLDCVYETRDTTYYLFWYKQPPSGELVFLIRRNSFDEQNEISGRYSWNFQKSTSSFNFTITASQVVDSAVYFCALRNSGNTPLVFGKGTRLSVIA
Vbeta: DSGVTQTPKHLITATGQRVTLRCSPRSGDLSVYWYQQSLDQGLQFLIQYYNGEERAKGNILERFSAQQFPDLHSELNLSSLELGDSALYFCASSVDWVQETQYFGPGTRLLVL
B6: TCR 1C (TCR, V domains shown)
Valpha: DQQVKQNSPSLSVQEGRISILNCDYTNSMFDYFLWYKKYPAEGPTFLISISSIKDKNEDGRFTVFLNKSAKHLSLHIVPSQPGDSAVYFCAATVGLAGNMLTFGGGTRLMVKP
Vbeta: DSGVTQTPKHLITATGQRVTLRCSPRSGDLSVYWYQQSLDQGLQFLIQYYNGEERAKGNILERFSAQQFPDLHSELNLSSLELGDSALYFCASSTPLSGSSTDTQYFGPGTRLTVL
B7: TCR 7D (TCR, V domains shown)
Valpha: QKEVEQDPGPLSVPEGAIVSLNCTYSNSAFQYFMWYRQYSRKGPELLMYTYSSGNKEDGRFTAQVDKSSKYISLFIRDSQPSDSATYLCASSFSGYNKLIFGAGTRLAVHP
Vbeta: B6 Vbeta with T95E, P96R, S98A, S100A, S101I, T102A
B8: TCR 1D (TCR, V domains shown)
Valpha: EDQVTQSPEALRLQEGESSSLNCSYTVSGLRGLFWYRQDPGKGPEFLFTLYSAGEEKEKERLKATLTKKESFLHITAPKPEDSATYLCAVHSNYQLIWGAGTKLIIKP
Vbeta: B6 Vbeta with Q48H, S98R, G99T, S100R, S101G
B9: TCR 3B (TCR, V domains shown)
Valpha: AQKITQTQPGMFVQEKEAVTLDCTYDTSDQSYGLFWYKQPSSGEMIFLIYQGSYDEQNATEGRYSLNFQKARKSANLVISASQLGDSAMYFCAMREGRGRRALTFGSGTRLQVQP
Vbeta: ETGVTQTPRHLVMGMTNKKSLKCEQHLGHNAMYWYKQSAKKPLELMFVYSLEERVENNSVPSRFSPECPNSSHLFLHLHTLQPEDSALYLCASSQDTAWDSGGETDTQYFGPGTRLTVL
B10: TCR 7B (TCR, V domains shown)
Valpha: DAKTTQPTSMDCAEGRAANLPCNHSTISGNEYVYWYRQIHSQGPQYIIHGLKNNETNEMASLIITEDRKSSTLILPHATLRDTAVYYCIVPRGFSNTGKLIFGQGTTLQVKP
Vbeta: GAVVSQHPSRVICKSGTSVKIECRSLDFQATTMFWYRQFPKQSLMLMATSNEGSKATYEQGVEKDKFLINHASLTLSTLTVTSAHPEDSSFYICSASESLALASEQYFGPGTRLTVT
B11: TCR 8A (TCR, V domains shown)
Valpha: AQSVAQPEDQVNVAEGNPLTVKCTYSVSGNPYLFWYVQYPNRGLQFLLKYITGDNLVKGSYGFEAEFNKSQTSFHLKKPSALVSDSALYFCAVRAPGNTPLVFGKGTRLSVIA
Vbeta: DTAVSQTPKYLVTQMGNDKSIKCEQNLGHDTMYWYKQDSKKFLKIMFSYNNKELIINETVPNRFSPKSPDKAHLNLHINSLELGDSAVYFCASSQDLGFDEKLFFGSGTQLSVL
B12: TCR 3C (TCR, V domains shown)
Valpha: GEDVEQSLFLSVREGDSSVINCTYTDSSSTYLYWYKQEPGAGLQLLTYIFSNMDMKQDQRLTVLLNKKDKHLSLRIADTQTGDSAIYFCAEGYGGKLIFGQGTELSVKP
Vbeta: GAGVSQTPSNKVTEKGKYVELRCDPISGHTALYWYRQSLGQGPEFLIYFQGTGAADDSGLPNDRFFAVRPEGSVSTLKIQRTERGDSAVYLCASSSKTGVVGEQFFGPGTRLTVL

Legend:
[1] = target: T1, TP53 wild-type peptide on HLA-A*02:01; experiment: cytokine release
[2] = target: T2, TP53 R175H peptide on HLA-A*02:01; experiment: multimer staining

binding result [1] | binding result [2] | Binder
no recognition | recognises | B1
no recognition | recognises | B2
no recognition | recognises | B3
no recognition | recognises | B4
no recognition | recognises | B5
no recognition | recognises | B6
no recognition | recognises | B7
no recognition | recognises | B8
no recognition | recognises | B9
no recognition | recognises | B10
no recognition | recognises | B11
no recognition | recognises | B12
